From patent publication US7919262B2, “14-3-3 proteins for diagnosis of Parkinson's disease” (The UAB Research Foundation, priority 2007, dated 2011) come the findings set out here.

The labels stand for the following.
B1: 14-3-3θ: 14-3-3 polypeptide θ isoform, overexpressed from V5/His-tagged pcDNA3.1 vector (or as transgene in C. elegans) (protein, UniProt P27348 1-245, looked up)
14-3-3 protein theta: MEKTELIQKAKLAEQAERYDDMATCMKAVTEQGAELSNEERNLLSVAYKNVVGGRRSAWRVISSIEQKTDTSDKKLQLIKDYREKVESELRSICTTVLELLDKYLIANATNPESKVFYLKMKGDYFRYLAEVACGDDRKQTIDNSQGAYQEAFDISKKEMQPTHPIRLGLALNFSVFYYEILNNPELACTLAKTAFDEAIAELDTLNEDSYKDSTLIMQLLRDNLTLWTSDSAGEECDAAEGAEN
modifications: V5/His tag
B2: 14-3-3ε: 14-3-3 polypeptide ε isoform, overexpressed from expression vector (protein, UniProt P62258 1-255, looked up)
14-3-3 protein epsilon: MDDREDLVYQAKLAEQAERYDEMVESMKKVAGMDVELTVEERNLLSVAYKNVIGARRASWRIISSIEQKEENKGGEDKLKMIREYRQMVETELKLICCDILDVLDKHLIPAANTGESKVFYYKMKGDYHRYLAEFATGNDRKEAAENSLVAYKAASDIAMTELPPTHPIRLGLALNFSVFYYEILNSPDRACRLAKAAFDDAIAELDTLSEESYKDSTLIMQLLRDNLTLWTSDMQGDGEEQNKEALQDVEDENQ
B3: 14-3-3ζ: 14-3-3 polypeptide ζ isoform, overexpressed from expression vector (protein, UniProt P63104 1-245, looked up)
14-3-3 protein zeta/delta: MDKNELVQKAKLAEQAERYDDMAACMKSVTEQGAELSNEERNLLSVAYKNVVGARRSSWRVVSSIEQKTEGAEKKQQMAREYREKIETELRDICNDVLSLLEKFLIPNASQAESKVFYLKMKGDYYRYLAEVAAGDDKKGIVDQSQQAYQEAFEISKKEMQPTHPIRLGLALNFSVFYYEILNSPEKACSLAKTAFDEAIAELDTLSEESYKDSTLIMQLLRDNLTLWTSDTQGDEAEAGEGGEN

This experiment deals with M17 cells. Nature of the experiment: MPP+ toxicity in stably transfected cell lines, LDH release. It is filed as cell-based, human. The conditions noted are these: stable overexpression; MPP+ 0-10 mM; 24 hours. Here is the method: Cell lines stably-transfected with either a 14-3-3 isoform or empty vector were treated with varying concentrations of MPP+ for 24 hours. Cell death was assayed by LDH release into the culture media. LDH release into media was normalized to total LDH release for each well. Lines overexpressing 14-3-3θ (FIG. 9A), 14-3-3ε (FIG. 9B), or 14-3-3γ (FIG. 9C) were more resistant to MPP+ in a dose-dependent manner compared to control stable cells. […] Results reflect two to three independent experiments with at least two replicates per experiment. **p<0.01, ***p<0.001 (Bonferroni's multiple comparison test).
The 14-3-3 expressing M17 clones were also tested for resistance to the neurotoxin 1-methyl-4-phenylpyridinium ion (MPP+), which is a metalbolite of 1-methyl-4-phenyl-1,2,3,6-tetrahydropyridine (MPTP). M17 cells expressing the 14-3-3 isoforms were prepared as described. M17 cells were treated with MPP+ (0-10 mM) for 24 hours (FIGS. 9A-G). Cell death was assayed by LDH release into the culture media as described above.
Primers against each of the human 14-3-3 isoforms were designed using Primer3. Primers against 14-3-3β (NM_018753) were 5′ […] 3′ (forward; SEQ ID NO. 9) and 5′ […] 3′ (reverse; SEQ ID NO. 10). Primers against 14-3-3ε (NM_009536) were 5′ […] 3′ (forward; SEQ ID NO. 11) and 5′ […] 3′ (reverse; SEQ ID NO. 12). Primers against 14-3-3γ (NM_018871) were 5′ […] 3′ (forward; SEQ ID NO. 13) and 5′ […] 3′ (reverse; SEQ ID NO. 14). Primers against 14-3-3η (NM_011738) were 5′ […] 3′ (forward; SEQ ID NO. 15) and 5′ […] 3′ (reverse; SEQ ID NO. 16). Primers against 14-3-3θ (NM_011739) were 5′ […] 3′ (forward; SEQ ID NO. 17) and 5′ […] 3′ (reverse; SEQ ID NO. 18). Primers against 14-3-3σ (NM_018754) were 5′ […] 3′ (forward; SEQ ID NO. 19) and 5′ […] 3′ (reverse; SEQ ID NO. 20). Primers against 14-3-3ζ(NM_011740) were 5′ […] 3′ (forward; SEQ ID NO. 21) and 5′ […] 3′ (reverse; SEQ ID NO. 22). Primers against GAPDH were 5′ tggtgaagcaggeatctga 3′ (forward; SEQ ID NO. 23) and 5′ […] 3′ (reverse; SEQ ID NO. 24) and were used to normalize PCR results. • α-syn aggregation assay H4 cells were transfected with synphilin, α-syn/green fluorescent protein (synT), and either empty vector control or a 14-3-3 isoform using Superfect transfection reagent (Qiagen). 24 hours after transfection, cells were fixed with 4% paraformaldehyde and immunostained with a monoclonal antibody against α-syn (BD Transduction) and a secondary Alexa 488-conjugated goat anti-mouse antibody (Molecular Probes). All cells stained for α-syn were scored as positive or negative for α-syn aggregates, with the rater blind to experimental condition. • α-syn toxicity assay H4 cells were transfected with α-syn and either empty vector control or a 14-3-3 isoform using Superfect transfection reagent (Qiagen). 24 hours after transfection, toxicity was measured by the amount of adenylate kinase released into the media using the ToxiLight™ kit (Cambrex). • Creation of stable cell lines Each 14-3-3 isoform was subcloned into the mammalian expression vector mcDNA3.1/V5-His (Invitrogen). BE(2)-M17 cells were transfected with each isoform or empty vector using Superfect, and stably-transfected cells were selected for in the presence of G418. […] Protein concentrations of supernatants were determined by the bicinchoninic acid assay (BCA; Pierce, Rockford, Ill.). […]
(In general: Release of lactate dehydrogenase indicates damage to the cell membrane.)
Take “14-3-3γ: 14-3-3 polypeptide γ isoform, overexpressed from expression vector”: the “protection against MPP+ toxicity (LDH release)” value (from here on “protection against MPP+ toxicity”) is reported as “reduced toxicity”.
Take B1: the “protection against MPP+ toxicity” value is given as “reduced toxicity”.
For B2, the “protection against MPP+ toxicity” value is recorded as “reduced toxicity”.
With B3, the “protection against MPP+ toxicity” value was “did not show any significant protection”.
